Measurements taken from patent US11643691B2, “Predictive biomarkers for cancer immunotherapy and methods of using same” (Duke University, priority 2018, dated 2023).

Assays:
[1] = system: bone-marrow-derived DCs (BMDCs); experiment: Extracellular lactate assay (surrogate for glycolysis); assay type: cell-based, Murine; details: BMDC culture media, 0 to 48 hr
Method: Lactate measurement: L-Lactate was measured by lactate dehydrogenase conversion of L-lactate+NAD+ to pyruvate+NADH following treatment with […] (Pesce et al., 1975). Lactate standards and samples were read at NADH specific absorbance 340 nm. For lactate measurement in Wnt5a time course, BMDCs were seeded in a 48-well plate at 1 million cell per well. BMDCs were treated with 100 ng/ml of recombinant Wnt5a from 0 to 48 hours. For extracellular lactate determination, 0.5 ml of supernatant media was collected directly from the culture, deproteinized by polyethylene glycol precipitation (25% w/v PEG-8000, sigma), and clarified by centrifugation at 20,000 g for 5 min. […] L-lactate was measured by lactate dehydrogenase (LDH, final 2 U/ml, Sigma) conversion of L-lactate+NAD+(β-Nicotinamide adenine dinucleotide, Sigma) to pyruvate+NADH in Glycine Buffer solution (final concentration Glycine 0.2M, Hydrazine 0.17M to destroy pyruvate allowing reaction to run to complete oxidation of lactate, Chloroform 0.0125%, Sigma). Reaction was incubated at 37° C. for 30 minute (without CO2), L-lactate standards and samples were read at NADH specific absorbance 340 nm (Infinite 200 PRO, Tecan).

CD4+FoxP3+ Treg cells = experiment: In vitro Treg cell assay (conditioned DCs with naive CD4+ T cells); assay type: cell-based, mice; details: treated DCs co-cultured with naive CD4+ T cells
Method: Dendritic Cell Conditioning: DCs were treated with Wnt3a (100 ng/mL), Wnt5a (200 ng/mL), LPS (1 μg/mL), 1-MT (1 mM), 2DG (1 mM), or ETO (100 μM), 2-DG(2-deoxy-d-glucose, 1 mM), Oligomycin (1 μM), succinylacetone (250 μM), or vehicle control either for 24 or 48 hrs prior to their use in both in vitro and in vivo experiments.
Treg Cell Assays: For in vivo Treg cell assays, DCs (C57, H-2b) were pre-treated for 48 hours and delivered by intradermal injection into the footpad of Foxp3-mRFP mice. Draining inguinal and popliteal lymph nodes were resected 5 days later and analyzed for CD4+Foxp3+ Treg cells. For in vitro Treg cell assays, DCs (Balb/c, H-2d) were pre-treated for either 24 or 48 hrs, and re-plated at a 1:3 DC:T-cell ratio with purified allogeneic naive Foxp3-mRFP(H-2b) CD44loCD62LhiCD4+ Tcells. These co-cultures were incubated for 6 days and quantitated for CD4+FoxP3+ Treg cells by flow cytometry.

DCs [2] = experiment: Flow cytometry of DC surface maturation markers; assay type: cell-based, Murine
Method: Flow Cytometry: One million cells were stained with 1 μg per million cells of each fluorochrome conjugated antibodies or commercially available dyes according to the standard protocols and analyzed using a FACSCanto II or LSRII (Becton Dickinson).

DC IDO = experiment: IDO enzymatic assay (kynurenine in conditioned media by HPLC); assay type: cell-based, Murine; details: purified DC cultures or tumor-infiltrating DCs
Method: (§1) IDO enzymatic assay and Hemin assay: DC IDO enzyme activity was measured by the conversion of L-tryptophan to L-kynurenine in conditioned media by HPLC (Pallotta et al., 2011). Intracellular hemin was measured using a colorimetric assay kit (BioVision).

DCs [3] = experiment: PpIX flow cytometry analysis and hemin colorimetric assay; assay type: cell-based, Murine
Method: as §1
PpIX Analysis: DCs were terminally incubated in the presence of 1 mM δ-aminolevulinic acid (ALA) for 4 hrs. Intracellular PpIX was analyzed by flow cytometry as previously described (Hryhorenko et al., 1998).

BMDCs = experiment: Metabolomics LC-MS of TCA intermediates; assay type: cell-based, Murine; details: rWnt5a stimulation
Method: Metabolomics: Metabolites were extracted from 5×106 BMDCs and subjected to LC-MS analysis according to a previously published protocol (Liu et al., 2014a, Liu et al., 2014b). Metabolites were extracted from 5×106 BMDCs from each experimental group (3 mice per group), washed with ice cold PBS, and lysed in 80% (v/v) methanol on dry ice. Cell lysates were frozen at −80° C. for 15 minutes to disrupt cell membrane and quench enzymatic activity. Samples were then thawed on ice, vortexed rigorously to extract metabolites, and then centrifuged at 20,000 g at 4° C. to precipitate proteins and cell debris. Metabolite extracts were then dried using a speed vacuum and subjected to LC-MS analysis (Liu et al., 2014a, Liu et al., 2014b). Data collected from LC-Q exactive MS is processed on Sieve 2.0 (Thermo). For metabolite analysis, theoretical m/z and retention time of 263 known metabolites were used for positive mode, and 197 metabolites were used for negative mode. Data containing detected m/z and relative intensity of different samples were obtained.

Akt = Akt Thr-308 phosphorylation immunoblot of DCs; assay type: cell-based, Murine; details: Wnt5a 200 ng/mL, 48 hrs
Description: Data is representative of 3 independent experiments. […] Data is representative of 3 independent experiments. […] Antibodies, Immunoprecipitation, and Immunoblot Analysis: Primary antibodies including CPT1A (Cell signaling), PPAR-γ (Santa Cruz Biotechnology), β-catenin, β-actin (Millipore), p-AMPK(T172)/AMPK (Cell signaling), p-AKT(T308)/Akt (Cell Signaling) were used at 1:1000. Secondary antibodies including goat anti-rabbit IgG-HRP (Millipore) and goat anti-mouse IgG-HRP (Millipore) were used at 1:5000. Cells were lysed in Laemmli sample buffer after treatment and subjected to SDS-polyacrylamide gel electrophoresis and immunoblot analysis. For immunoprecipitation, cells were lysed in radio immunoprecipitation assay (RIPA) buffer [10 mM sodium phosphate (pH 8.0), 150 mM NaCl, 1% Triton X-100, 1% sodium deoxycholate, and 0.1% SDS in the presence of 1 mM DTT, 1 mM phenylmethylsulfonylfluoride, and a protease inhibitor cocktail (Sigma)], precleared with protein A beads, and then incubated with 1 μg of antibody against β-catenin or isotype control IgG with protein A-agarose beads on a rotator overnight at 4° C. After 3 washes with RIPA buffer, immunoprecipitated complexes were eluted in sample buffer by boiling and subjected to immunoblot analysis. Immunoblots were visualized by chemiluminescence substrate (ThermoFisher) and imaged by a ChemiDoc XRSplus system (BioRad).

B1: Wnt5a: Recombinant Human/Mouse Wnt5a Protein (R&D Systems) (protein, UniProt P41221 62-380, looked up)
Protein Wnt-5a: IIGAQPLCSQLAGLSQGQKKLCHLYQDHMQYIGEGAKTGIKECQYQFRHRRWNCSTVDNTSVFGRVMQIGSRETAFTYAVSAAGVVNAMSRACREGELSTCGCSRAARPKDLPRDWLWGGCGDNIDYGYRFAKEFVDARERERIHAKGSYESARILMNLHNNEAGRRTVYNLADVACKCHGVSGSCSLKTCWLQLADFRKVGDALKEKYDSAAAMRLNSRGKLVQVNSRFNSPTTQDLVYIDPSPDYCVRNESTGSLGTQGRLCNKTSEGMDGCELMCCGRGYDQFKTVQTERCHCKFHWCCYVKCKKCTEIVDQFVCK
- lactate production [1]: suppresses lactate production
- DC-mediated Treg cell differentiation in vitro (CD4+FoxP3+ Treg cells): enhanced Treg cell differentiation in vitro
- DC surface maturation markers / co-stimulatory receptors (DCs [2]): absence of any alterations in DC surface maturation markers
- DC IDO enzymatic activity (kynurenine) (DC IDO): promoted DC IDO enzymatic activity
- DC concentrations of PpIX and hemin (DCs [3]): enhanced DC concentrations of the PpIX prosthetic group and its downstream degradation product, hemin
- TCA intermediate metabolites (BMDCs): increased quantities of many TCA intermediates but a decrease in α-ketoglutarate
- DC Akt Thr-308 phosphorylation (Akt): no impact
